Experimental data published in paper PMC8062265.

Molecular target: Recombinant 1-158 a.a. domain of TMCC3 protein (human) (UniProt Q9ULS5)
Test: Luminex immunosandwich assay; cell-free; protein coupled onto Luminex beads, incubated with various concentrations of recombinant AKT, washed, detected with fluorescence labeled anti-AKT antibody (MFI, n = 4)

Sequence of UniProt Q9ULS5 (Q9ULS5 1-158): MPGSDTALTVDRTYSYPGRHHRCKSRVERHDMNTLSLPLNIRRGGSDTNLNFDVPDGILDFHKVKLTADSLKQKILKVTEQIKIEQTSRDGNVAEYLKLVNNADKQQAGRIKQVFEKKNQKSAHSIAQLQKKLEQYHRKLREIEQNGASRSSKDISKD

## recombinant AKT (from UniProt P31749 1-480) (natural protein)
  Kd: 1.67 nM
